The values that follow come from patent US20180105585A1 (published 2018).

Where a chain is given by its changes, count along the chain named. Names and notes keep the numbering of the source.

For experiment [1], the target named is T1, Biotinylated human Amyloid beta 1-42 peptide (human, N-terminal biotin).
T1 construct: Synthetic peptide (rPeptide A1117 or Bachem H-5642); range counted on Amyloid beta; also called N-terminal biotin Abeta 1-42; synthetic biotinylated human Amyloid beta 1-42 peptide
Description: SPR (ProteOn), biotinylated peptide on streptavidin chip, scFv as analyte.

Experiment [2] concerns the target T1, Biotinylated human Amyloid beta 1-42 …. The experiment is described as follows: HTRF epitope competition, purified scFv against Abet0144-GL IgG1-TM (competitor) for biotinylated human Amyloid beta 1-42.
Experiment [3] has as its target T2, Amyloid beta plaques in Tg2576 mouse brain sections (human (transgene in mouse), UniProt P05067 672-713, limits assumed).
T2 construct: domain: Amyloid beta; The two APP mutations lie before the first residue of Amyloid beta; also called native Amyloid beta; Tg2576 brain sections
The experiment is described as follows: in vitro immunohistochemistry, core plaques.

Experiment [4] has as its target T3, Amyloid beta plaques in human Alzheimer's Disease brain sections (human, UniProt P05067 672-713, limits assumed).
T3 construct: domain: Amyloid beta; Paraffin sections treated with formic acid; aggregated native peptide of mixed length; also called native Amyloid beta; human AD brain sections
Description: in vitro immunohistochemistry, core plaques.

T1 sequence (peptide, as listed by the source): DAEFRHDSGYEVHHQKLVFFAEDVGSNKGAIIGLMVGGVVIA
T2 sequence (P05067 672-713 limits assumed): as the sequence (peptide, as listed by the source) above
T3 sequence (P05067 672-713 limits assumed): as the sequence (peptide, as listed by the source) above

B1: Abet0328 scFv (scFv, V domains shown)
VH: EVQLLESGGGLVQPGGSLRLSCAASSDAFKTDTMWWVRQAPRKGLEWVSVIGAHTNNSAYADSVKGRFTISRDNSKNTLYLQMNSLRAEDTAVYYCAREWMDRSRPYYYYGMDVWGQGTLVTVSS
VL: SYELTQPPSVSVSPGQTVSITCSGRNLEDKFASWYQQKPGQSPVLVIYRDDKRPSGVPERFSASNSGHTATLTISGTQATDEADYYCSSQDTVTRVFGGGTKLTVL
For the molecule B1, in experiment [1], binding was put at a Kd of 0.729 nM, the dissociation rate constant (koff) turned out to be 0.000103 s⁻¹ and the kon amounted to 141000 M⁻¹ s⁻¹. Besides, the 50% inhibitory concentration (IC50) in experiment [2] came out at 0.55 nM.

B2: Abet0380-GL IgG1-TM (antibody, V domains shown)
VH: EVQLLESGGGLVQPGGSLRLSCAASMGNFNYQTMWWVRQAPGKGLEWVSVIGKTNENIAYADSVKGRFTISRDNSKNTLYLQMNSLRAEDTAVYYCAREWMDHSRPYYYYGMDVWGQGTLVTVSS
VL: B1 VL with V18A, R25H, V57I, T80M
notes: Whole human IgG1 with the triple mutation L234F/L235E/P331S (TM) and human lambda light chain constant domain; also called Abet0380-GL (germlined) IgG1-TM
B2: the values for the plaque staining score in experiment [3] and in experiment [4] were 4 score (0-4) and 3 score (0-4), respectively.

B3: Abet0144-GL IgG1-TM (antibody, V domains shown)
VH: EVQLLESGGGLVQPGGSLRLSCAASGFTFSVYTMWWVRQAPGKGLEWVSVIGSSGGTTVYADSVKGRFTISRDNSKNTLYLQMNSLRAEDTAVYYCAREWMDHSRPYYYYGMDVWGQGTLVTVSS
VL: B1 VL with V18A, R25H, V57I, T80M, S88Q, S89A, T92S, V93T
notes: Whole human IgG1 with the triple mutation L234F/L235E/P331S (TM) and human lambda light chain constant domain; also called Abet0144-GL (germlined) IgG1-TM
As to B3, the results for the plaque staining score in experiment [3] and in experiment [4] were 1 score (0-4) and 1.5 score (0-4), respectively.
